The record followed here is patent US20200340991A1.

The experiment concerns the target chimeric TSH receptor (chimeric MC4 receptor) expressed on CHO-MC4 cells (human/rat chimera) (UniProt P16473). The experiment can be described thus: cell-based or functional assay.

thyroid blocking monoclonal antibody K1-70, sequence (VH): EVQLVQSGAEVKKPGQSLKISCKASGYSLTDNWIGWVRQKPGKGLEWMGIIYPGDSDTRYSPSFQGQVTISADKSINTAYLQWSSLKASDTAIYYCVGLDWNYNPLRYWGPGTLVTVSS
thyroid blocking monoclonal antibody K1-70, sequence (VL): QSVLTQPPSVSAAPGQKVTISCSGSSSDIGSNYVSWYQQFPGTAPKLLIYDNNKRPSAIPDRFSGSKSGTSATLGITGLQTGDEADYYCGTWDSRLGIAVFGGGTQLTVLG

Turning to “thyroid stimulating monoclonal antibody M22”, the % inhibition, TBI assay, M22 0.02 ng/ml was found to be 2%; the % inhibition, TBI assay, M22 0.04 ng/ml was determined as 0%; the % inhibition, TBI assay, M22 0.05 ng/ml was -6%; the % inhibition, TBI assay, M22 0.06 ng/ml was -11%. Also, the % inhibition, TBI assay, M22 0.08 ng/ml was -21%; the % inhibition, TBI assay, M22 0.1 ng/ml was -27%; the % inhibition, TBI assay, M22 0.15 ng/ml is -32%; the % inhibition, TBI assay, M22 0.2 ng/ml was -52%. The % inhibition, TBI assay, M22 0.25 ng/ml was -50%; the % inhibition, TBI assay, M22 0.3 ng/ml was -65%; the % inhibition, TBI assay, M22 0.35 ng/ml was -63%; the % inhibition, TBI assay, M22 0.4 ng/ml was -64%. In addition, the % inhibition, TBI assay, M22 0.6 ng/ml is -66%; the % inhibition, TBI assay, M22 0.8 ng/ml was -73%; the % inhibition, TBI assay, M22 1.2 ng/ml is -83%; the % inhibition, TBI assay, M22 only 100% (0.8 ng/ml M22) was -106%. This substance displayed an EC50 of stimulatory activity, TBI assay of 0.16 ng/mL; an EC50 of stimulatory activity, TSI assay of 0.14 ng/mL; an RLU, TBI assay, M22 0.02 ng/ml of 9070 RLU; an RLU, TBI assay, M22 0.04 ng/ml of 9260 RLU. The substance also showed an RLU, TBI assay, M22 0.05 ng/ml of 9690 RLU; an RLU, TBI assay, M22 0.06 ng/ml of 10100 RLU; an RLU, TBI assay, M22 0.08 ng/ml of 10900 RLU; an RLU, TBI assay, M22 0.1 ng/ml of 11300 RLU. This substance also came in with an RLU, TBI assay, M22 0.15 ng/ml of 11700 RLU; an RLU, TBI assay, M22 0.2 ng/ml of 13300 RLU; an RLU, TBI assay, M22 0.25 ng/ml of 13100 RLU; an RLU, TBI assay, M22 0.3 ng/ml of 14300 RLU. Further, the RLU, TBI assay, M22 0.35 ng/ml amounted to 14100 RLU; the RLU, TBI assay, M22 0.4 ng/ml was 14200 RLU; the RLU, TBI assay, M22 0.6 ng/ml was 14400 RLU; the RLU, TBI assay, M22 0.8 ng/ml amounted to 15000 RLU. In addition, the RLU, TBI assay, M22 1.2 ng/ml amounted to 15700 RLU; the RUT, TBI assay, M22 only 100% (0.8 ng/ml M22) amounted to 21200 RUT; the SRR % (TBI), M22 0.02 ng/ml worked out at 61%; the SRR % (TBI), M22 0.04 ng/ml came to 95%. Also, the SRR % (TBI), M22 0.05 ng/ml was found to be 111%; the SRR % (TBI), M22 0.06 ng/ml was determined as 122%; the SRR % (TBI), M22 0.08 ng/ml turned out to be 146%; the SRR % (TBI), M22 0.1 ng/ml is 180%. Further, the SRR % (TBI), M22 0.15 ng/ml was 236%; the SRR % (TBI), M22 0.2 ng/ml worked out at 270%; the SRR % (TBI), M22 0.25 ng/ml was 283%; the SRR % (TBI), M22 0.3 ng/ml was 302%. The SRR % (TBI), M22 0.35 ng/ml was found to be 315%; the SRR % (TBI), M22 0.4 ng/ml stood at 332%; the SRR % (TBI), M22 0.6 ng/ml amounted to 368%; the SRR % (TBI), M22 0.8 ng/ml worked out at 368%. In addition, the SRR % (TBI), M22 1.2 ng/ml was 365%.

Regarding “human chorionic gonadotropin (from UniProt P01215 25-116; P0DN86 21-165) (ligand)”, the % inhibition, TBI assay, hCG 8000 mIU/ml in reaction buffer (no K1-70) is -7%; the % inhibition, TBI assay, hCG 16000 mIU/ml in reaction buffer (no K1-70) worked out at 0%; the RLU, TBI assay, hCG 8000 mIU/ml in reaction buffer (no K1-70) was determined as 17500 RLU; the RLU, TBI assay, hCG 16000 mIU/ml in reaction buffer (no K1-70) was 16500 RLU.

As to luteinizing hormone (ligand), the % inhibition, TBI assay, LH 20 mIU/ml in reaction buffer (no K1-70) is -5%; the % inhibition, TBI assay, LH 40 mIU/ml in reaction buffer (no K1-70) is -6%; the RLU, TBI assay, LH 20 mIU/ml in reaction buffer (no K1-70) amounted to 17300 RLU; the RLU, TBI assay, LH 40 mIU/ml in reaction buffer (no K1-70) came out at 17400 RLU.

follicle stimulating hormone (ligand) gave a % inhibition, TBI assay, FSH 116.3 mIU/ml in reaction buffer (no K1-70) of 0%; a % inhibition, TBI assay, FSH 232.6 mIU/ml in reaction buffer (no K1-70) of 1%; an RLU, TBI assay, FSH 116.3 mIU/ml in reaction buffer (no K1-70) of 16500 RLU; an RLU, TBI assay, FSH 232.6 mIU/ml in reaction buffer (no K1-70) of 16300 RLU.

On to “thyroid blocking monoclonal antibody K1-70”, for which the % inhibition, TBI assay, 2.5 ng K1-70 (TBI positive) stood at 86%; the % inhibition, TBI assay, K1-70 0.0025 ng/ml is -6%; the % inhibition, TBI assay, K1-70 0.1 ng/ml came out at 6%; the % inhibition, TBI assay, K1-70 0.4 ng/ml was determined as 25%. This substance also yielded a % inhibition, TBI assay, K1-70 0.6 ng/ml of 27%; a % inhibition, TBI assay, K1-70 1 ng/ml of 38%; a % inhibition, TBI assay, K1-70 1.5 ng/ml of 55%; a % inhibition, TBI assay, K1-70 1.56 ng/ml of 60%. The % inhibition, TBI assay, K1-70 5 ng/ml came to 102%; the % inhibition, TBI assay, K1-70 10 ng/ml stood at 114%; the % inhibition, TBI assay, K1-70 12.5 ng/ml is 104%; the % inhibition, TBI assay, K1-70 25 ng/ml is 104%. For the same substance, the % inhibition, TBI assay, K1-70 50 ng/ml was found to be 103%; the % inhibition, TBI assay, K1-70 100 ng/ml turned out to be 101%; the % inhibition, TBI assay, K1-70 only 100% (5 ng/ml K1-70) was 94%; the % inhibition, TBI assay, mixture M22:K1-70 10:90 was determined as 77%. Moreover, the % inhibition, TBI assay, mixture M22:K1-70 20:80 came out at 51%; the % inhibition, TBI assay, mixture M22:K1-70 30:70 is 27%; the % inhibition, TBI assay, mixture M22:K1-70 50:50 is -37%; the % inhibition, TBI assay, mixture M22:K1-70 60:40 was -59%. The % inhibition, TBI assay, mixture M22:K1-70 90:10 is -98%; the IC50, TBI bioassay was determined as 1.34 ng/mL; the IC50 of TBI assay with CHO-MC4 cells came out at 1.34 ng/mL; the RLU, TBI assay, 2.5 ng K1-70 (TBI positive) worked out at 5530 RLU. Further, the RLU, TBI assay, 2.5 ng K1-70 with FSH 116.3 mIU/ml amounted to 6100 RLU; the RLU, TBI assay, 2.5 ng K1-70 with FSH 232.6 mIU/ml was 5810 RLU; the RLU, TBI assay, 2.5 ng K1-70 with LH 20 mIU/ml is 6100 RLU; the RLU, TBI assay, 2.5 ng K1-70 with LH 40 mIU/ml was determined as 5770 RLU. Also, the RLU, TBI assay, 2.5 ng K1-70 with hCG 8000 mIU/ml was 6000 RLU; the RLU, TBI assay, 2.5 ng K1-70 with hCG 16000 mIU/ml was found to be 5950 RLU; the RLU, TBI assay, K1-70 0.0025 ng/ml was 16400 RLU; the RLU, TBI assay, K1-70 0.05 ng/ml stood at 15700 RLU. In addition, the RLU, TBI assay, K1-70 0.1 ng/ml was found to be 13600 RLU; the RLU, TBI assay, K1-70 0.2 ng/ml worked out at 14100 RLU; the RLU, TBI assay, K1-70 0.4 ng/ml was 12800 RLU; the RLU, TBI assay, K1-70 0.6 ng/ml was found to be 12600 RLU. Also, the RLU, TBI assay, K1-70 0.8 ng/ml came to 12700 RLU; the RLU, TBI assay, K1-70 1 ng/ml stood at 11300 RLU; the RLU, TBI assay, K1-70 1.5 ng/ml was 9420 RLU; the RLU, TBI assay, K1-70 2 ng/ml was 7940 RLU. The same substance returned an RLU, TBI assay, K1-70 2.5 ng/ml of 6620 RLU; an RLU, TBI assay, K1-70 5 ng/ml of 4010 RLU; an RLU, TBI assay, K1-70 10 ng/ml of 2700 RLU; an RUT, TBI assay, K1-70 only 100% (5 ng/ml K1-70) of 2420 RUT. For the same substance, the RUT, TBI assay, mixture M22:K1-70 10:90 came to 4000 RUT; the RUT, TBI assay, mixture M22:K1-70 20:80 is 6470 RUT; the RUT, TBI assay, mixture M22:K1-70 30:70 worked out at 8650 RUT; the RUT, TBI assay, mixture M22:K1-70 40:60 is 12300 RUT. Moreover, the RUT, TBI assay, mixture M22:K1-70 50:50 is 14600 RUT; the RUT, TBI assay, mixture M22:K1-70 60:40 turned out to be 16700 RUT; the RUT, TBI assay, mixture M22:K1-70 70:30 turned out to be 17600 RUT; the RUT, TBI assay, mixture M22:K1-70 80:20 came out at 19600 RUT. Further, the RUT, TBI assay, mixture M22:K1-70 90:10 is 20400 RUT and the sensitivity of TBI bioassay against TRAb assay was above 20 fold.
